From the supplement of paper PMC7877785
± gives the uncertainty stated by the source.

Assay: self-splicing fitness, log relative to wild type (ln ratio); higher = more splicing; Tetrahymena group I intron in knt gene, E. coli kanamycin selection, DiMSum; sequences stand for … in CUCUCU…GGAGGGAAAAGUUAUCAGGCAUGCACCUGGUAGCUAGUCUUUAAACCAAUAGAUUGCAUCGGUUUAAAAGGCAAGACCGUCAAAUUGCGGGAAAGGGGUCAACAGCCGUUCAGUACCAAGUCUCAGGGGAAACUUUGAGAUGGCCUUGCAAAGGGUAUGGUAAUAAGCUGACGGACAUGGUCCUAACCACGCAGCCAAGUCCUAAGUCAACAGAUCUUCUGUUGAUAUGGAUGCAGUUCACAGACUAAAUGUCGGUCGGGGAAGAUGUAUUCUUCUCAUAAGAUAUAGUCGGACCUCUCCUUAAUGGGAGCUAGCGGAUGAAGUGAUGCAACACUGGAGCCGCUGGGAACUAAUUUGUAUGCGAAAGUAUAUUGAUUAGUUUUGGAGUACUCGUGGUCG
In short: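 A randomised library covering all eight P1ex-region intron nucleotides was built with the intron in the knt kanamycin-resistance gene on pET-22b(+) and held in E. coli BL21(DE3). Cells were grown overnight at 37°C or 30°C on LB agar, with or without 25 μg/mL kanamycin, plus 100 μg/mL carbenicillin, 50 μM IPTG and 0.2% rhamnose, and pooled colonies were amplicon-sequenced on an Illumina HiSeq 2500. DiMSum fitness is the error-weighted combination of wild-type-normalised replicate fold changes, kanamycin versus none.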

| Sequence | self-splicing fitness (ln) (30 °C) | self-splicing fitness (ln) (37 °C) |
| --- | --- | --- |
| AGGAAGCAAUAUUACGCCAG | -2.89 ± 0.18 | -1.81 ± 0.22 |
| AGGAAGCAAUAUUACGCCCU | -2.95 ± 0.33 | – |
| AGGAAGCAAUAUUACGGAAU | -2.88 ± 0.22 | -2.14 ± 0.3 |
| AGGAAGCAAUAUUACGGCAC | -1.55 ± 0.14 | -0.99 ± 0.14 |
| AGGAAGCAAUAUUACGGCCG | -0.634 ± 0.12 | -0.462 ± 0.19 |
| AGGAAGCAAUAUUACGGCCU | -2.44 ± 0.37 | -1.5 ± 0.3 |
| AGGAAGCAAUAUUACGGCUC | -1.07 ± 0.14 | -0.713 ± 0.19 |
| AGGAAGCAAUAUUACGGUUC | -2.78 ± 0.21 | -2.24 ± 0.2 |
| AGGAAGCAAUAUUACGUCUA | -0.335 ± 0.092 | -0.143 ± 0.1 |
| AGGAAGCAAUAUUACGUCUU | -2.07 ± 0.062 | -1.59 ± 0.08 |
| AGGAAGCAAUAUUACGUGCC | -1.72 ± 0.22 | -0.175 ± 0.23 |
| AGGAAGCAAUAUUACGUUUG | -3.55 ± 0.17 | -2.48 ± 0.19 |
| AGGCAGCAAUAUUACGAAAA | -3.77 ± 0.25 | -2.26 ± 0.15 |
| AGGCAGCAAUAUUACGAAAC | -3.58 ± 0.22 | -1.8 ± 0.19 |
| AGGCAGCAAUAUUACGAACU | 0.174 ± 0.095 | 0.719 ± 0.12 |
| AGGCAGCAAUAUUACGACAU | -0.21 ± 0.012 | -0.101 ± 0.032 |
| AGGCAGCAAUAUUACGAUAG | -3.08 ± 0.34 | -2.15 ± 0.36 |
| AGGCAGCAAUAUUACGAUGG | -3.56 ± 0.19 | -2.44 ± 0.22 |
| AGGCAGCAAUAUUACGAUUA | -1.12 ± 0.1 | -0.936 ± 0.095 |
| AGGCAGCAAUAUUACGCAGA | -1.37 ± 0.12 | -0.754 ± 0.11 |
| AGGCAGCAAUAUUACGCGCU | -3.04 ± 0.15 | -1.03 ± 0.1 |
| AGGCAGCAAUAUUACGCGUC | -3.34 ± 0.3 | -2.54 ± 0.3 |
| AGGCAGCAAUAUUACGCUUA | -0.31 ± 0.1 | -0.299 ± 0.099 |
| AGGCAGCAAUAUUACGGAAG | -2.92 ± 0.13 | -1.98 ± 0.15 |
| AGGCAGCAAUAUUACGGAGA | -2.91 ± 0.14 | -2.61 ± 0.17 |

| Sequence | self-splicing fitness (ln) (30 °C) | self-splicing fitness (ln) (37 °C) |
| --- | --- | --- |
| AGGCAGCAAUAUUACGGCAC | -0.991 ± 0.085 | -0.533 ± 0.13 |
| AGGCAGCAAUAUUACGGCAU | -0.346 ± 0.062 | 0.15 ± 0.09 |
| AGGCAGCAAUAUUACGUAAG | -1.77 ± 0.13 | -0.486 ± 0.17 |
| AGGCAGCAAUAUUACGUAUG | -3.27 ± 0.27 | -1.53 ± 0.15 |
| AGGCAGCAAUAUUACGUCCA | -0.459 ± 0.051 | 0.0124 ± 0.078 |
| AGGCAGCAAUAUUACGUCCC | – | 0.266 ± 0.3 |
| AGGCAGCAAUAUUACGUCUA | -0.469 ± 0.081 | 0.262 ± 0.091 |
| AGGCAGCAAUAUUACGUGAG | -0.654 ± 0.066 | -0.526 ± 0.09 |
| AGGCAGCAAUAUUACGUGGA | -4.02 ± 0.26 | -2.6 ± 0.14 |
| AGGCAGCAAUAUUACGUUCU | -1.86 ± 0.08 | -0.817 ± 0.09 |
| AGGGAGCAAUAUUACGAACA | -3.22 ± 0.45 | -1.72 ± 0.31 |
| AGGGAGCAAUAUUACGAAUC | – | -2.43 ± 0.29 |
| AGGGAGCAAUAUUACGACAU | -2.607 ± 0.025 | -2.17 ± 0.041 |
| AGGGAGCAAUAUUACGACUG | -2.15 ± 0.24 | 0.0208 ± 0.21 |
| AGGGAGCAAUAUUACGAGGG | – | -2.2 ± 0.5 |
| AGGGAGCAAUAUUACGAGUU | -4.48 ± 0.46 | -1.45 ± 0.19 |
| AGGGAGCAAUAUUACGAUGA | -3.54 ± 0.37 | -2.7 ± 0.41 |
| AGGGAGCAAUAUUACGAUUG | -3.9 ± 0.17 | -3.41 ± 0.25 |
| AGGGAGCAAUAUUACGCAGC | -2.92 ± 0.47 | – |
| AGGGAGCAAUAUUACGCAUU | -3.7 ± 0.37 | – |
| AGGGAGCAAUAUUACGCCAG | -1.99 ± 0.24 | -2.14 ± 0.34 |
| AGGGAGCAAUAUUACGCUAG | -2.36 ± 0.31 | -0.612 ± 0.41 |
| AGGGAGCAAUAUUACGGCGU | -2.04 ± 0.12 | -1.05 ± 0.11 |
| AGGGAGCAAUAUUACGGUCG | -2.2 ± 0.31 | -2.83 ± 0.48 |
| AGGGAGCAAUAUUACGUCCA | -1.11 ± 0.27 | -0.389 ± 0.33 |

| Sequence | self-splicing fitness (ln) (30 °C) | self-splicing fitness (ln) (37 °C) |
| --- | --- | --- |
| AGGGAGCAAUAUUACGUCGU | -4.4 ± 0.46 | -2.46 ± 0.33 |
| AGGGAGCAAUAUUACGUCUG | – | -1.73 ± 0.36 |
| AGGGAGCAAUAUUACGUUAA | -3.09 ± 0.48 | -2.66 ± 0.41 |
| AGGGAGCAAUAUUACGUUCC | – | -2.63 ± 0.48 |
| AGGUAGCAAUAUUACGAAAC | -3.37 ± 0.035 | -1.85 ± 0.042 |
| AGGUAGCAAUAUUACGACAG | -1.6 ± 0.017 | -0.956 ± 0.034 |
| AGGUAGCAAUAUUACGACCU | -3.04 ± 0.031 | -2.42 ± 0.049 |
| AGGUAGCAAUAUUACGACUA | -0.0242 ± 0.016 | 0.141 ± 0.034 |
| AGGUAGCAAUAUUACGAGCC | -0.991 ± 0.021 | -0.862 ± 0.037 |
| AGGUAGCAAUAUUACGAUAG | -3.728 ± 0.035 | -2.72 ± 0.045 |
| AGGUAGCAAUAUUACGCACA | -0.467 ± 0.017 | 0.0312 ± 0.034 |
| AGGUAGCAAUAUUACGCACG | -0.782 ± 0.016 | -0.31 ± 0.035 |
| AGGUAGCAAUAUUACGCAUA | -1.71 ± 0.019 | -0.787 ± 0.034 |
| AGGUAGCAAUAUUACGCGUC | -2.763 ± 0.023 | -1.57 ± 0.037 |
| AGGUAGCAAUAUUACGCUCA | -0.609 ± 0.017 | -0.196 ± 0.035 |
| AGGUAGCAAUAUUACGCUUC | -3.52 ± 0.036 | -2.83 ± 0.054 |
| AGGUAGCAAUAUUACGGCUC | -0.672 ± 0.017 | -0.185 ± 0.036 |
| AGGUAGCAAUAUUACGGGCU | -0.801 ± 0.016 | -0.848 ± 0.035 |
| AGGUAGCAAUAUUACGGGGC | -3.748 ± 0.033 | -2.96 ± 0.043 |
| AGGUAGCAAUAUUACGUGGG | -3.908 ± 0.027 | -2.98 ± 0.039 |
| AGGUAGCAAUAUUACGUGUC | -3.313 ± 0.024 | -2.07 ± 0.037 |
| AGGUAGCAAUAUUACGUGUU | -2.894 ± 0.016 | -1.6 ± 0.034 |
| AGGUAGCAAUAUUACGUUUG | -3.578 ± 0.024 | -2.55 ± 0.039 |
| AGUAAGCAAUAUUACGAAGU | -1.75 ± 0.24 | -0.18 ± 0.27 |
| AGUAAGCAAUAUUACGACAU | -0.346 ± 0.013 | -0.078 ± 0.033 |

| Sequence | self-splicing fitness (ln) (30 °C) | self-splicing fitness (ln) (37 °C) |
| --- | --- | --- |
| AGUAAGCAAUAUUACGACCU | 0.329 ± 0.11 | 0.451 ± 0.14 |
| AGUAAGCAAUAUUACGACGC | -0.403 ± 0.15 | 0.541 ± 0.17 |
| AGUAAGCAAUAUUACGACUC | -1.88 ± 0.13 | -0.797 ± 0.14 |
| AGUAAGCAAUAUUACGAGGG | -3.06 ± 0.18 | -2.87 ± 0.28 |
| AGUAAGCAAUAUUACGAGUC | -2.96 ± 0.23 | -1.45 ± 0.17 |
| AGUAAGCAAUAUUACGAUGG | -3.99 ± 0.23 | -1.56 ± 0.26 |
| AGUAAGCAAUAUUACGGAUG | -3.1 ± 0.25 | -2.2 ± 0.26 |
| AGUAAGCAAUAUUACGGCAC | -2.04 ± 0.27 | -0.545 ± 0.2 |
| AGUAAGCAAUAUUACGGCUU | -0.592 ± 0.086 | -0.0743 ± 0.11 |
| AGUAAGCAAUAUUACGGGAA | -2.13 ± 0.16 | -2.12 ± 0.19 |
| AGUAAGCAAUAUUACGGGAG | -3.4 ± 0.2 | -2.43 ± 0.2 |
| AGUAAGCAAUAUUACGGGUU | -2.54 ± 0.18 | -2.68 ± 0.2 |
| AGUAAGCAAUAUUACGGUCA | -0.817 ± 0.074 | 0.0737 ± 0.081 |
| AGUAAGCAAUAUUACGGUCC | -0.766 ± 0.061 | -0.91 ± 0.08 |
| AGUAAGCAAUAUUACGGUCU | -0.432 ± 0.093 | -0.488 ± 0.11 |
| AGUAAGCAAUAUUACGUAUG | -2.94 ± 0.29 | -2.15 ± 0.24 |
| AGUAAGCAAUAUUACGUUUA | -2.84 ± 0.22 | -1.56 ± 0.18 |
| AGUAAGCAAUAUUACGUUUG | -4.38 ± 0.29 | -2.13 ± 0.21 |
| AGUCAGCAAUAUUACGACAA | -0.509 ± 0.098 | 0.177 ± 0.13 |
| AGUCAGCAAUAUUACGACAC | -0.0897 ± 0.065 | -0.358 ± 0.084 |
| AGUCAGCAAUAUUACGCCAU | -2.86 ± 0.25 | -1.1 ± 0.21 |
| AGUCAGCAAUAUUACGCCUU | -0.221 ± 0.11 | 0.301 ± 0.13 |
